The source of these data is the Immune Epitope Database (IEDB).

Test [1] addresses HLA-B*46:01. Nature of the test: IEDB peptide-MHC binding, purified MHC/direct/fluorescence; filed as Kd, often an IC50 or EC50 that approximates it; ≥ and ≤ were set here for values at or beyond the usual limits of such assays.
Test [2] addresses HLA-A*31:01. The description is as above.
For test [3], the target named is HLA-B*15:09. Described as above.
Test [4] has as its target HLA-B*40:01. The description is as above.
In test [5] the target is HLA-B*44:02. The description is as above.
Test [6] concerns the target HLA-A*69:01. Described as above.
In test [7] the target is HLA-A*03:01. The test is described as above.
Test [8] has as its target HLA-B*18:01. Described as above.
The target in test [9] is HLA-B*57:01. Described as above.
The target in test [10] is HLA-B*58:01. The description is as above.
In test [11] the target is HLA-A*01:01. Described as above.
Test [12] deals with HLA-A*02:01. Described as above.
For test [13], the target named is HLA-B*27:05. The test is described as above.
For test [14], the target named is HLA-B*07:02. The description is as above.
The target in test [15] is HLA-B*15:01. The test is described as above.
The target of test [16] is HLA-B*39:01. Nature of the test: IEDB peptide-MHC binding, purified MHC/competitive/fluorescence; filed as Kd, often an IC50 or EC50 that approximates it; ≥ and ≤ were set here for values at or beyond the usual limits of such assays.
The target in test [17] is HLA-A*29:02. Kind of test: IEDB peptide-MHC binding, purified MHC/direct/fluorescence; filed as Kd, often an IC50 or EC50 that approximates it; ≥ and ≤ were set here for values at or beyond the usual limits of such assays. The conditions noted are these: source organism: West Nile virus.
Test [18] concerns the target HLA-B*39:01. The description is as above.
The target in test [19] is HLA-B*48:01. The test is described as above.
Test [20] has as its target HLA-A*11:01. The test is described as above.
In test [21] the target is HLA-A*68:02. Described as above. The conditions noted are these: source organism: Camelpox virus M-96.
The target in test [22] is HLA-B*08:02. Described as above.
The target of test [23] is HLA-B*15:17. Described as above. The conditions noted are these: source organism: Camelpox virus M-96.
In test [24] the target is HLA-B*08:01. The test is described as above.
For test [25], the target named is HLA-A*26:01. The description is as above.
Test [26] deals with HLA-A*02:01. Nature of the test: IEDB peptide-MHC binding, purified MHC/competitive/fluorescence; filed as Kd, often an IC50 or EC50 that approximates it; ≥ and ≤ were set here for values at or beyond the usual limits of such assays. The conditions noted are these: source organism: Vaccinia virus WR.
For test [27], the target named is HLA-C*03:03. Nature of the test: IEDB peptide-MHC binding, purified MHC/direct/fluorescence; filed as Kd, often an IC50 or EC50 that approximates it; ≥ and ≤ were set here for values at or beyond the usual limits of such assays.
In test [28] the target is HLA-C*05:01. The description is as above.
The target in test [29] is HLA-B*46:01. Kind of test: IEDB peptide-MHC binding, purified MHC/competitive/fluorescence; filed as Kd, often an IC50 or EC50 that approximates it; ≥ and ≤ were set here for values at or beyond the usual limits of such assays. The conditions noted are these: source organism: Entamoeba histolytica HM-1:IMSS.
Test [30] concerns the target HLA-A*29:02. The description is as above. The conditions noted are these: source organism: Entamoeba histolytica HM-1:IMSS.
In test [31] the target is HLA-A*02:11. Described as above. The conditions noted are these: source organism: Entamoeba histolytica HM-1:IMSS.
In test [32] the target is HLA-B*27:03. Described as above. The conditions noted are these: source organism: Entamoeba histolytica HM-1:IMSS.
The target in test [33] is HLA-A*03:01. Described as above. The conditions noted are these: source organism: Entamoeba histolytica HM-1:IMSS.
In test [34] the target is HLA-B*18:01. The test is described as above. The conditions noted are these: source organism: Entamoeba histolytica HM-1:IMSS.
For test [35], the target named is HLA-A*02:19. The description is as above. The conditions noted are these: source organism: Entamoeba histolytica HM-1:IMSS.
Test [36] concerns the target HLA-B*57:01. Described as above. The conditions noted are these: source organism: Entamoeba histolytica HM-1:IMSS.
Test [37] addresses HLA-A*26:01. The test is described as above. The conditions noted are these: source organism: Entamoeba histolytica HM-1:IMSS.
The mark [38] stands for this setting: source organism: West Nile virus.
Where [39] appears, read: source organism: West Nile virus strain PTRoxo.
The mark [40] stands for this setting: source organism: Camelpox virus M-96.
Where [41] appears, read: source organism: Burkholderia mallei.
The mark [42] stands for this setting: source organism: Burkholderia mallei ATCC 23344.
Setting [43] is: source organism: Campylobacter jejuni subsp. jejuni NCTC 11168 = ATCC 700819.
The mark [44] stands for this setting: source organism: Bacillus thuringiensis str. Al Hakam.

Take GHGTVVLEL: the Kd in test [1] (setting [38]) is at least 20 µM; in test [2] (setting [38]), at least 20 µM; in [3] (setting [39]) it was 4.55 µM; in test [4] (setting [38]), at least 20 µM; in test [5] (setting [38]), at least 20 µM; in [6] (setting [38]) it was at least 20 µM. Also, the dissociation constant Kd in test [7] (setting [38]), in test [8] (setting [38]), in test [9] (setting [38]), in test [10] (setting [38]), in test [11] (setting [38]) and in test [12] (setting [38]) was at least 20 µM throughout. Besides, the Kd in test [13] (setting [38]) is at least 20 µM; in [14] (setting [38]) it was at least 20 µM; in [15] (setting [38]), at least 20 µM; in test [16] (source organism: Murray Valley encephalitis virus), 0.0067 µM.

Take TEGEGRVIL: the Kd in test [1] (setting [38]) was at least 20 µM; in test [2] (setting [38]) it was at least 20 µM; in [3] (setting [39]), at least 20 µM; in test [4] (setting [38]), 0.0459 µM; in [17], at least 20 µM; in test [18] (setting [38]) it was at least 20 µM. Besides, the Kd in test [19] (setting [38]) is at least 20 µM; in test [5] (setting [38]), at least 20 µM; in test [6] (setting [38]), at least 20 µM; in test [7] (setting [38]), at least 20 µM; in [8] (setting [38]) it was 1.01 µM; in test [9] (setting [38]), at least 20 µM. Moreover, the Kd in [10] (setting [38]), in [11] (setting [38]), in test [12] (setting [38]), in test [13] (setting [38]), in test [20] (setting [38]) and in test [14] (setting [38]) was at least 20 µM each time. This sequence had a Kd in test [15] (setting [38]) of at least 20 µM.

Turning to KELENEYYF, the Kd is at least 20 µM in test [2] (setting [40]); at least 20 µM in test [3] (source organism: Variola virus); 0.0183 µM in [4] (setting [40]); at least 20 µM in [21]; at least 20 µM in [22] (source organism: Variola virus); at least 20 µM in test [18] (source organism: Variola virus). The dissociation constant Kd in test [19] (setting [40]) is at least 20 µM; in test [5] (setting [40]), at least 20 µM; in test [23], at least 20 µM; in [6] (setting [40]) it was at least 20 µM; in test [8] (setting [40]), 0.0198 µM; in test [9] (setting [40]), at least 20 µM. Besides, the Kd in [10] (setting [40]), in [11] (setting [40]), in [24] (source organism: Variola virus), in test [13] (setting [40]), in [20] (setting [40]) and in [25] (source organism: Variola virus) was at least 20 µM throughout. Moreover, the Kd in test [14] (setting [40]) and in [26] was at least 20 µM in each case.

Regarding EARGKEKLL, the dissociation constant (Kd) in [1] (setting [41]), in test [3] (setting [42]), in test [4] (setting [41]), in [22] (setting [42]), in [7] (setting [41]) and in test [10] (setting [41]) was at least 20 µM each time. Also, the equilibrium dissociation constant (Kd) in test [11] (setting [41]) was at least 20 µM; in test [24] (setting [42]), 5.88 µM; in test [12] (setting [41]) it was at least 20 µM; in test [13] (setting [41]) it was at least 20 µM; in [20] (setting [41]) it was at least 20 µM; in test [25] (setting [42]) it was at least 20 µM. Further, the Kd in test [14] (setting [41]) and in [15] (setting [41]) was at least 20 µM throughout.

Regarding YLVDCGAEL, the dissociation constant (Kd) in test [27] (source organism: Mycobacterium tuberculosis str. Haarlem) was at most 0.001 µM.

As for ILDTGTIQL, the dissociation constant Kd in [27] (source organism: Homo sapiens) worked out at 1.27 µM; in test [28] (source organism: Homo sapiens), 0.019 µM.

As for CLSPVVAGL, the Kd in [29] was at least 20 µM; in [30], 0.219 µM; in test [31], at most 0.0001 µM; in test [32], at least 20 µM; in test [33] it was at least 20 µM; in test [34], at least 20 µM. Besides, the figures for the dissociation constant Kd in test [35], in test [36] and in [37] were 0.0008 µM, at least 20 µM and at least 20 µM, respectively.

Consider LLDEPTNHL, for which the Kd in test [27] (setting [43]) was determined as 2.91 µM; in [28] (setting [43]) it was 0.008 µM; in test [6] (source organism: Bacillus anthracis) it was 0.105 µM.

Take YSAWGGYNL: the values for the Kd in test [28] (setting [44]) and in [16] (setting [44]) were 4.18 µM and 0.404 µM, respectively.

As a reminder, the Kd is a measure of binding affinity in units of concentration.
